Experiments:
plasmin = molecular target: T1, plasmin (Homo sapiens, UniProt P00747); assay: Serine protease inhibition test, plasmin (chromogenic substrate); type: biochemical; conditions: recombinant protein 1, 100, 200 nM; protease 100 pM; 6 h at 37° C.
T1 construct: Serine protease (100 pM; thrombin, plasmin, trypsin or factor Xa) was incubated with recombinant protein
Procedure: (A) Inhibition of serine proteases through recombinant protein. Serine protease (100 pM; thrombin, plasmin, trypsin or factor Xa) was incubated with recombinant protein (1, 100 and 200 nM) in phosphate buffer 50 mM containing NaCl 150 mM and 0.1% of PEG 6000, pH 7.4 for 6 h at 37° C. Following addition of chromogenic substrate corresponding to reaction mixture, hydrolysis thereof was monitored at 405 nm. For factor Xa activity, buffer contained phosphatidylserine and phosphatidylcholine 50 μM. […] (B) Typical curves for hydrolysis of chromogenic substrate S-2238 (15 μM) by thrombin 0.1 nM in absence (trace a) or presence of recombinant protein (trace b, 15 pM; trace c, 30 pM; trace d, 60 pM and trace e, 100 pM) in phosphate buffer 50 mM containing NaCl 150 mM and 0.1% of PEG 6000, pH 7.4 at 37° C. (C) Residual activity of thrombin in presence of increasing concentration of recombinant protein. (D) Dose-response curves for thrombin inhibition by recombinant protein. Percentage of thrombin inhibition was plotted versus the concentration record of recombinant protein. Experimental condition of (C) and (D) is the same as in (B).
The first performed experiment was the test of serine proteases inhibition through recombinant protein. […] Hydrolysis of a chromogenic substrate through serine proteases in the presence and absence of recombinant protein was monitored in a spectrophotometer way. […]

thrombin = thrombin (Homo sapiens, UniProt P00734); assay: Incubation without serine protease in phosphate buffer, then thrombin inhibition test; type: in vitro ADME; design: Brown and cyan colors represent heavy and light chain of thrombin respectively; conditions: pH 7.4
Procedure: Recombinant protein (10 μM) was incubated with or without serine protease 1 μM (thrombin, plasmin, trypsin or factor Xa) in phosphate buffer 50 mM containing NaCl 150 mM and 0.1% of PEG 6000, pH 7.4 for 4, 6, 7 or 18 h at 37° C. Reaction mixtures (20 μl) were split by SDS-PAGE. (A) hydrolysis SDS-PAGE (15%) of recombinant protein by serine proteases following 6 h of incubation. (B) Percentage of thrombin inhibition by recombinant protein following 6 h of incubation with serine protease (see experimental procedures). (C) hydrolysis SDS-PAGE (15%) of recombinant protein by serine proteases following 18 h of incubation. (D) Percentage of thrombin inhibition by recombinant protein following 18 h of incubation with serine protease (see experimental procedures). Numbering of (B) and (D) corresponds to numbering of (A) and (C), respectively, and recombinant protein control is represented by CTRL. […]
(§1) Afterwards, it was determined whether serine proteases, like thrombin, plasmin, factor Xa and trypsin, hydrolyze recombinant protein. […] Upon addition of chromogenic substrate S-2238, the hydrolysis thereof by thrombin was monitored in spectrophotometer way. […]

trypsin = molecular target: T2, trypsin (Bos taurus, UniProt P00760); assay: Degradation of recombinant protein by trypsin (SDS-PAGE and residual thrombin inhibition); type: in vitro ADME
T2 construct: gene PRSS1
T2 sequence (P00760 24-246): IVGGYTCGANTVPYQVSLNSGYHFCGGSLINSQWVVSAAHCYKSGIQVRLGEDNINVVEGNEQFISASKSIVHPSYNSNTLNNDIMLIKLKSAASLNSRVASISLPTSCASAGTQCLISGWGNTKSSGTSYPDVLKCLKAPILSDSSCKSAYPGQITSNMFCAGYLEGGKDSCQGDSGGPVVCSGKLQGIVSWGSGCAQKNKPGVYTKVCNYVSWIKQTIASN
Procedure: Recombinant protein (10 μM) was incubated with or without serine protease 1 μM (thrombin, plasmin, trypsin or factor Xa) in phosphate buffer 50 mM containing NaCl 150 mM and 0.1% of PEG 6000, pH 7.4 for 4, 6, 7 or 18 h at 37° C. Reaction mixtures (20 μl) were split by SDS-PAGE. (A) hydrolysis SDS-PAGE (15%) of recombinant protein by serine proteases following 6 h of incubation. (B) Percentage of thrombin inhibition by recombinant protein following 6 h of incubation with serine protease (see experimental procedures). (C) hydrolysis SDS-PAGE (15%) of recombinant protein by serine proteases following 18 h of incubation. (D) Percentage of thrombin inhibition by recombinant protein following 18 h of incubation with serine protease (see experimental procedures). Numbering of (B) and (D) corresponds to numbering of (A) and (C), respectively, and recombinant protein control is represented by CTRL. Recombinant protein (strip 1); thrombin (strip 2) and thrombin with recombinant protein (strip 3); plasmin (strip 4) and plasmin with recombinant protein (strip 5); trypsin (strip 6) and trypsin with recombinant protein (strip 7); factor Xa (strip 8) and factor Xa with recombinant protein (strip 9) and protein marker (strip 10; in A). (E) Identification of cleavage sites of thrombin in recombinant protein following 7 h of incubation. (F) Identification of cleavage sites of factor Xa in recombinant protein following 4 h of incubation. Cleavage sites of thrombin and factor Xa in recombinant protein sequence are shown in FIGS. S1 and S2, respectively. Experimental procedure for (C), (D), (E) and (F) was the same as for (A) and (B), except the incubation time and the type of serine protease used. FIG. 5 discloses “GKPQG” as SEQ ID NO: 18, “MPKGG” as SEQ ID NO: 19, and “SDAVH” as SEQ ID NO: 20.
as §1

[1] = Half-life in plasma ex vivo and in phosphate buffer containing thrombin; type: in vitro ADME; conditions: plasma ex vivo and phosphate buffer 50 mM with 1 μM thrombin, recombinant protein 10 μM, pH 7.4, 37° C.
isolated human plasma = assay: Thrombin time (TT) in isolated human plasma; type: biochemical; conditions: plasma of healthy human volunteers, incubation 3 min. at 37° C.
Procedure: Plasma was obtained from blood of healthy human volunteer and incubated with different concentrations of recombinant protein. APTT, PT and TT were determined like experimental procedure. (A) Activated partial thromboplastin time (B) prothrombin time and (C) thrombin time. Ctrl is related to plasma and Sal is related to plasma plus saline.
Finally, PT, aPTT and TT were assessed in isolated plasma of healthy human volunteers following incubation with recombinant protein for 3 min. at 37° C. […] Maximum test reading for aPTT was achieved following 12 nM, while for PT that was achieved following 6 nM of recombinant protein (FIGS. 11A and 11B).

T1 sequence (P00747 581-810 limits assumed, species assumed): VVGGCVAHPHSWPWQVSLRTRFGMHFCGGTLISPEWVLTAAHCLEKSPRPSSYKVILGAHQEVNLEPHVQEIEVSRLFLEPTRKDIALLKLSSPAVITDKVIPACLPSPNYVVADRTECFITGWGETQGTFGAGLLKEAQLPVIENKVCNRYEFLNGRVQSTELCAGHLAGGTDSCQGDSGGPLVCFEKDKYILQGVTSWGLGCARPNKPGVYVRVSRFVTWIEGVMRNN
T1 sequence (P00747 97-580 limits assumed, species assumed): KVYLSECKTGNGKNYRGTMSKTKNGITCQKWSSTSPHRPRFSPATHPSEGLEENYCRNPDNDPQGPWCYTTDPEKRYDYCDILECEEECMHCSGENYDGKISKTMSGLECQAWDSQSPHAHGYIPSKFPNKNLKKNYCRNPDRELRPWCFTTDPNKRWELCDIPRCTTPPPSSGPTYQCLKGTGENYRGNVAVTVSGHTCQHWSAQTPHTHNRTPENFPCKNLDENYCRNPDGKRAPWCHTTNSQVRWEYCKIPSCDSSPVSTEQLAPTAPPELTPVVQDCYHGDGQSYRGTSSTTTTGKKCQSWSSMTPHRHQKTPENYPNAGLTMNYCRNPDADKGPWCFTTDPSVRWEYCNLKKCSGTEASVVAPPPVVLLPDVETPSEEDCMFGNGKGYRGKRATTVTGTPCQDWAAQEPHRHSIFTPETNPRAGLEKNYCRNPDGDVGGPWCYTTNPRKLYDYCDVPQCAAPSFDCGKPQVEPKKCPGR

B1: GKPQGHPHDALEARSDAVHTAVPKMPKGGHGGFEPIPIDYDERALEARSDAVHTAVPKMPKGGLGGFEPIPIDYDERALEARSDAVHTAVPKMPKGGHGGFEPIPIDYDERALEARSDAVHTAVPKMPKGGHGGFEPIPIDYDERALHALEHHHHHH (protein)
chain: GKPQGHPHDALEARSDAVHTAVPKMPKGGHGGFEPIPIDYDERALEARSDAVHTAVPKMPKGGLGGFEPIPIDYDERALEARSDAVHTAVPKMPKGGHGGFEPIPIDYDERALEARSDAVHTAVPKMPKGGHGGFEPIPIDYDERALHALEHHHHHH
modifications: Sculptin recombinat protein
notes: recombinant His-tagged protein modified from tick sculptin, expressed in E. coli
- inhibition of plasmin (plasmin): did not inhibit
- thrombin inhibition after incubation without serine protease (thrombin; 6 h at 37° C., control is 100 pM of fresh recombinant protein): inhibited thrombin in similar way to control
- thrombin inhibition after incubation without serine protease (thrombin; 18 h at 37° C., control of fresh recombinant protein): inhibited thrombin in similar way to control
- SDS-PAGE strip of 20-kDa (non-digested recombinant protein) (trypsin; 10 μM protein with 1 μM trypsin, 6 h at 37° C.): completely disappeared
- SDS-PAGE strip of 20-kDa (recombinant protein monomer) (trypsin; 10 μM protein with 1 μM trypsin, 18 h at 37° C.): completely disappeared
- thrombin inhibition after incubation (trypsin; after 18 h incubation with trypsin, diluted to 100 pM): did not inhibit thrombin
- Half-life [1]: 8 h
- TT (isolated human plasma): prolonged by recombinant protein in peak-molar range
